Data from patent US20120052092A1 (published 2012).

Assays:
[1] = molecular target: T1, factor H binding protein (wild type, variant 1) (UniProt E6MV22 20-274); test: SPR
T1 chain: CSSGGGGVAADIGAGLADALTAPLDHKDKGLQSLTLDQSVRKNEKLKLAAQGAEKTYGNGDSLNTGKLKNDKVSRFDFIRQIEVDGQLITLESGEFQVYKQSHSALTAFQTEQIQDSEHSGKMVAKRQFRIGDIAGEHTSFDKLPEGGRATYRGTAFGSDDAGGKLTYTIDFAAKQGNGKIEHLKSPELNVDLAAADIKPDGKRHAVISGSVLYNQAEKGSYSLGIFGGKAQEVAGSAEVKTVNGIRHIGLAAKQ

[2] = molecular target: T1, factor H binding protein (wild type, …); test: SPR; 402His
[3] = molecular target: T1, factor H binding protein (wild type, …); test: SPR
[4] = molecular target: T2, Neisseria gonorrhoeae fHbp homologue (NGO0033) (Neisseria gonorrhoeae); test: SPR
T2 chain: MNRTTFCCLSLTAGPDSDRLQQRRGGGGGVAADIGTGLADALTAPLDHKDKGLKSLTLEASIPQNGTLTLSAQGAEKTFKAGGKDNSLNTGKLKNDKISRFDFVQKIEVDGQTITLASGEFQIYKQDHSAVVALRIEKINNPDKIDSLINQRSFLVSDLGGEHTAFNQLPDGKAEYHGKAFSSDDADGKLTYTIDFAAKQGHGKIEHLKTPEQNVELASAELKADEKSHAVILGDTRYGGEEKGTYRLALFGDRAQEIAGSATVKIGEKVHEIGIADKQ

[5] = molecular target: fHbp Variant 3 (Neisseria meningitidis); test: SPR
[6] = molecular target: fHbp Variant 2 (Neisseria meningitidis); test: SPR
[7] = molecular target: fHbp variant 3 (Neisseria meningitidis); test: SPR; sensorgram
[8] = molecular target: fHbp variant 2 (Neisseria meningitidis); test: SPR; sensorgram
[9] = molecular target: 6 7H 8; test: SPR; 402His
[10] = molecular target: fH678 His 402; test: SPR; 402His
[11] = molecular target: fH678 Tyr402; test: SPR; 402Tyr
[12] = molecular target: 6 7Y 8; test: SPR; 402Tyr
[13] = molecular target: FH67 N339E M340S; test: SPR

B1: fH67 (CCPs 6 and 7 of factor H) (other)
chain: TLKPCDYPDIKHGGLYHENMRRPYFPVAVGKYYSYYCDEHFETPSGSYWDHIHCTQDGWSPAVPCLRKCYFPYLENGYNQNYGRKFVQGKSIDVACHPGYALPKAQTTVTCMENGWSPTPRCI
Q: With B1 as the binder, how does the Kd [1] read?
A: The Kd was 5 nM.

Q: What about the Kd [2] of the same binder?
A: Its Kd is 4 nM.

Q: What about the Kd [3] of the same binder?
A: Its Kd is 4 nM.

Q: What about the Kd [4] of the same binder?
A: The Kd was 6000 nM.

B2: FH67 (other)
chain: TLKPCDYPDIKHGGLYHENMRRPYFPVAVGKYYSYYCDEHFETPSGSYWDHIHCTQDGWSPAVPCLRKCYFPYLENGYNQNYGRKFVQGKSIDVACHPGYALPKAQTTVTCMENGWSPTPRCI
Q: How did the Kd [5] turn out when B2 was run?
A: The Kd was 3 nM.

Q: What about the Kd [6] of the same binder?
A: The Kd was 2 nM.

B3: FH678 (other)
chain: TLKPCDYPDIKHGGLYHENMRRPYFPVAVGKYYSYYCDEHFETPSGSYWDHIHCTQDGWSPAVPCLRKCYFPYLENGYNQNYGRKFVQGKSIDVACHPGYALPKAQTTVTCMENGWSPTPRCIRVKTCSKSSIDIENGFISESQYTYALKEKAKYQCKLGYVTADGETSGSITCGKDGWSAQPTCIKSC
Q: How did the Kd [5] turn out when B3 was run?
A: The Kd was 3 nM.

Q: And the Kd [6]?
A: The Kd was 2 nM.

Q: What about the Kd [7] of the same binder?
A: The Kd was 3.43 nM.

Q: And the Kd [8]?
A: Its Kd is 1.51 nM.

B4: Factor H Domains 5, 6 and 7 (other)
chain: KSCDNPYIPNGDYSPLRIKHRTGDEITYQCRNGFYPATRGNTAKCTSTGWIPAPRCTLKPCDYPDIKHGGLYHENMRRPYFPVAVGKYYSYYCDEHFETPSGSYWDHIHCTQDGWSPAVPCLRKCYFPYLENGYNQNYGRKFVQGKSIDVACHPGYALPKAQTTVTCMENGWSPTPRCI
Q: For B4, which Kd [2] is on record?
A: The Kd was 6 nM.

Q: What about the Kd [3] of the same binder?
A: Its Kd is 6.1 nM.

B5: fHbp (other)
chain: CSSGGGGVAADIGAGLADALTAPLDHKDKGLQSLTLDQSVRKNEKLKLAAQGAEKTYGNGDSLNTGKLKNDKVSRFDFIRQIEVDGQLITLESGEFQVYKQSHSALTAFQTEQIQDSEHSGKMVAKRQFRIGDIAGEHTSFDKLPEGGRATYRGTAFGSDDAGGKLTYTIDFAAKQGNGKIEHLKSPELNVDLAAADIKPDGKRHAVISGSVLYNQAEKGSYSLGIFGGKAQEVAGSAEVKTVNGIRHIGLAAKQ
Q: With B5 as the binder, how does the Kd [9] read?
A: Its Kd is 6 nM.

Q: And the Kd [10]?
A: Its Kd is 5.7 nM.

Q: And the Kd [11]?
A: The Kd was 7.2 nM.

Q: What about the Kd [12] of the same binder?
A: The Kd was 7 nM.

B6: fHbp Variant 1 (other)
chain: CSSGGGGVAADIGAGLADALTAPLDHKDKGLQSLTLDQSVRKNEKLKLAAQGAEKTYGNGDSLNTGKLKNDKVSRFDFIRQIEVDGQLITLESGEFQVYKQSHSALTAFQTEQIQDSEHSGKMVAKRQFRIGDIAGEHTSFDKLPEGGRATYRGTAFGSDDAGGKLTYTIDFAAKQGNGKIEHLKSPELNVDLAAADIKPDGKRHAVISGSVLYNQAEKGSYSLGIFGGKAQEVAGSAEVKTVNGIRHIGLAAKQ
Q: For B6, which Kd [13] is on record?
A: The Kd was 67 nM.
